Publication PMC11937253 (2025)
Where two headings read alike, the source gives them in different places.

B1: nanobody M1R-01 (monovalent) (VHH)
VHH: QVQLVESGGGLVQAGGSLRLSCAASGFIFHNFDMGWYRQAPGKEREFVAAISDNGRSTYYADSVKGRFTISRDNAKNTVYLQMNSLKPEDTAVYYCAVAWLSIPDLAEWYDYWGQGTQVTVSS
B2: recombinant MPXV [change] protein (ectodomain, His-tagged) (domain or fragment)
chain: MGAAASIQTTVNTLSERISSKLEQEANASAQTKCDIEIGNFYIRQNHGCNITVKNMCSADADAQLDAVLSAATETYSGLTPEQKAYVPAMFTAALNIQTSVNTVVRDFENYVKQTCNSSAVVDNKLKIQNVIIDECYGAPGSPTNLEFINTGSSKGNCAIKALMQLTTKATTQIAPRQVAG

Experiments:
Test in all cases: SPR
[1] = target: T1, recombinant MPXV [change] protein (ectodomain, His-tagged) (mpox virus (MPXV), isolate …)
[2] = target: T1, recombinant MPXV [change] protein …; remark: listed apart in the source
[3] = target: 7D11

| Binder | Kd [1] | Kd [2] | Kd [3] |
| --- | --- | --- | --- |
| B1 | 40 nM | 40.4 nM |  |
| B2 |  |  | 0.0198 nM |
